Experiments:
Assay in all cases: IEDB peptide-MHC binding, purified MHC/competitive/radioactivity; ≥ and ≤ were set here for values at or beyond the usual limits of such assays
HLA-A*02:03 = target: HLA-A*02:03
HLA-A*02:06 = target: HLA-A*02:06
HLA-A*02:02 = target: HLA-A*02:02
HLA-A*02:01 = target: HLA-A*02:01
HLA-A*68:02 = target: HLA-A*68:02
[1] = source organism: Vaccinia virus WR
[2] = source organism: Influenza A virus
[3] = source organism: Mammarenavirus lassaense
[4] = source organism: Hepacivirus hominis

Sequence	IC50 (HLA-A*02:03; [1])	IC50 (HLA-A*02:06; [1])	IC50 (HLA-A*02:02; [1])	IC50 (HLA-A*02:01; [1])	IC50 (HLA-A*68:02; [1])	further results
FIASAPQQL	4.4 nM	89 nM	2 nM	120 nM	35 nM	
SSLENFRAYV						IC50 (HLA-A*02:03; [2]): 1140 nM; IC50 (HLA-A*02:06; [2]): 44 nM; IC50 (HLA-A*02:02; [2]): 204 nM; IC50 (HLA-A*02:01; [2]): 172 nM; IC50 (HLA-A*68:02; [2]): 24 nM
FVNFVKDMI	124 nM	229 nM	55 nM	1790 nM	0.62 nM	
ETIQKDINIT	10 nM	112 nM	354 nM	1270 nM	69 nM	
LVSDCASTI	17 nM	61 nM	49 nM	2740 nM	71 nM	
FLTGTFVTA	0.71 nM	2.1 nM	4.7 nM	15 nM	896 nM	
FVATFRDML	206 nM	487 nM	2350 nM	2260 nM	12 nM	
IAGGVCYYL	1680 nM	1410 nM	53 nM	1930 nM	394 nM	
PIIYSKAGNI	139 nM	728 nM	654 nM	873 nM	3110 nM	
YMSNLFDIPL	10 nM	127 nM	19 nM	18 nM	471 nM	
IISYIILFIL	489 nM	3930 nM	66 nM	580 nM	2090 nM	
LISLINSLV	0.48 nM	72 nM	0.48 nM	15 nM	68 nM	
FVFNGTSWFI						IC50 (HLA-A*02:03; source organism: SARS-CoV1): 2.2 nM; IC50 (HLA-A*02:06; source organism: SARS-CoV1): 0.44 nM; IC50 (HLA-A*02:02; source organism: SARS-CoV1): 1 nM; IC50 (HLA-A*02:01; source organism: SARS-CoV1): 1.1 nM; IC50 (HLA-A*68:02; source organism: SARS-CoV1): 0.33 nM
IMRVMANNV	1260 nM	2500 nM	396 nM	311 nM	1180 nM	
YLYTEYFLFL	0.56 nM	0.007 nM	0.085 nM	0.069 nM	76 nM	
ALIARCWYL						IC50 (HLA-A*02:03; source organism: SARS-CoV1): 17 nM; IC50 (HLA-A*02:06; source organism: SARS-CoV1): 0.98 nM; IC50 (HLA-A*02:02; source organism: SARS-CoV1): 0.2 nM; IC50 (HLA-A*02:01; source organism: SARS-CoV1): 0.46 nM; IC50 (HLA-A*68:02; source organism: SARS-CoV1): 1260 nM
EVNDTHYTV	115 nM	4770 nM	133 nM	3060 nM	0.5 nM	
FQVDCFLWH						IC50 (HLA-A*02:03; [2]): 1260 nM; IC50 (HLA-A*02:06; [2]): 93 nM; IC50 (HLA-A*02:02; [2]): 216 nM; IC50 (HLA-A*02:01; [2]): 336 nM; IC50 (HLA-A*68:02; [2]): 3660 nM

Sequence	IC50 (HLA-A*02:03; [1])	IC50 (HLA-A*02:06; [1])	IC50 (HLA-A*02:02; [1])	IC50 (HLA-A*02:01; [1])	IC50 (HLA-A*68:02; [1])	further results
TQWSLFFFV						IC50 (HLA-A*02:03; source organism: SARS-CoV1): 540 nM; IC50 (HLA-A*02:06; source organism: SARS-CoV1): 0.81 nM; IC50 (HLA-A*02:02; source organism: SARS-CoV1): 80 nM; IC50 (HLA-A*02:01; source organism: SARS-CoV1): 0.77 nM; IC50 (HLA-A*68:02; source organism: SARS-CoV1): 104 nM
IVILFIMFM	1680 nM	741 nM	1860 nM	576 nM	667 nM	
FSTSFYLISI						IC50 (HLA-A*02:03; [3]): 53 nM; IC50 (HLA-A*02:06; [3]): 9.2 nM; IC50 (HLA-A*02:02; [3]): 2.1 nM; IC50 (HLA-A*02:01; [3]): 32 nM; IC50 (HLA-A*68:02; [3]): 1.8 nM
QMLSVVGFLV						IC50 (HLA-A*02:03; source organism: SARS-CoV1): 6 nM; IC50 (HLA-A*02:06; source organism: SARS-CoV1): 14 nM; IC50 (HLA-A*02:02; source organism: SARS-CoV1): 1.2 nM; IC50 (HLA-A*02:01; source organism: SARS-CoV1): 7.5 nM; IC50 (HLA-A*68:02; source organism: SARS-CoV1): 206 nM
KVLSIMAFIL	684 nM	19 nM	2.3 nM	88 nM	2970 nM	
MLLAYLVRI						IC50 (HLA-A*02:03; [4]): 12 nM; IC50 (HLA-A*02:06; [4]): 5 nM; IC50 (HLA-A*02:02; [4]): 6.6 nM; IC50 (HLA-A*02:01; [4]): 3.3 nM; IC50 (HLA-A*68:02; [4]): 1830 nM
IVVPVIDRL	226 nM	31 nM	144 nM	241 nM	35 nM	
MAAAKTPVI	209 nM	672 nM	259 nM	1370 nM	16 nM	
DQTHIKTIAV	390 nM	1000 nM	2170 nM	650 nM	404 nM	
NLTQLFKYV	238 nM	657 nM	320 nM	1180 nM	4340 nM	
ATFRDMLLNV	0.4 nM	3 nM	7.1 nM	8.3 nM	511 nM	
LLSAGIFGA						IC50 (HLA-A*02:03; source organism: SARS-CoV1): 15 nM; IC50 (HLA-A*02:06; source organism: SARS-CoV1): 25 nM; IC50 (HLA-A*02:02; source organism: SARS-CoV1): 12 nM; IC50 (HLA-A*02:01; source organism: SARS-CoV1): 8.1 nM; IC50 (HLA-A*68:02; source organism: SARS-CoV1): 106 nM
ILATLNTLIT	12 nM	629 nM	7 nM	443 nM	1860 nM	
PISDYSAEV	267 nM	2800 nM	716 nM	1050 nM	1390 nM	
IMQVFFGYFA						IC50 (HLA-A*02:03; source organism: SARS-CoV1): 1570 nM; IC50 (HLA-A*02:06; source organism: SARS-CoV1): 51 nM; IC50 (HLA-A*02:02; source organism: SARS-CoV1): 590 nM; IC50 (HLA-A*02:01; source organism: SARS-CoV1): 290 nM; IC50 (HLA-A*68:02; source organism: SARS-CoV1): 4500 nM
LALKNSQAEL	333 nM	1250 nM	741 nM	3760 nM	3660 nM	
KVEKYLPEV	171 nM	116 nM	1050 nM	17 nM	1520 nM	
